Molecular target: the molecule itself
Test: crystal structure

B1: Listeria monocytogenes PrsA1 (residues 22-294), wild type (domain or fragment)
chain: CGSSAVIKTDAGSVTQDELYEAMKTTYGNEVVQQLTFKKILEDKYTVTEKEVNAEYKKYEEQYGDSFESTLSSNNLTKTSFKENLEYNLLVQKATEANMDVSESKLKAYYKTWEPDITVRHILVDDEATAKEIQTKLKNGEKFTDLAKEYSTDTATSTNGGLLDPFGPGEMDETFEKAAYALENKDDVSGIVKSTYGYHLIQLVKKTEKGTYAKEKANVKAAYIKSQLTSENMTAALKKELKAANIDIKDSDLKDAFADYTSTSSTSSTTTSN
stoichiometry N: 2

Source: paper PMC4925323 (Molecular microbiology, 2016)
